# Laboratory results taken from PMC5357957 (2017).
# B1: HA-tagged HACE1 wild-type [human] / myc-Rac1 Q61L [not stated] (parent complex)
# chain 1: MERAMEQLNRLTRSLRRARTVELPEDNETAVYTLMPMVMADQHRSVSELLSNSKFDVNYAFGRVKRSLLHIAANCGSVECLVLLLKKGANPNYQDISGCTPLHLAARNGQKKCMSKLLEYSADVNICNNEGLTAIHWLAVNGRTELLHDLVQHVSDVDVEDAMGQTALHVACQNGHKTTVQCLLDSGADINRPNVSGATPLYFACSHGQRDTAQILLLRGAKYLPDKNGVTPLDLCVQGGYGETCEVLIQYHPRLFQTIIQMTQNEDLRENMLRQVLEHLSQQSESQYLKILTSLAEVATTNGHKLLSLSSNYDAQMKSLLRIVRMFCHVFRIGPSSPSNGIDMGYNGNKTPRSQVFKPLELLWHSLDEWLVLIATELMKNKRDSTEITSILLKQKGQDQDAASIPPFEPPGPGSYENLSTGTRESKPDALAGRQEASADCQDVISMTANRLSAVIQAFYMCCSCQMPPGMTSPRFIEFVCKHDEVLKCFVNRNPKIIFDHFHFLLECPELMSRFMHIIKAQPFKDRCEWFYEHLHSGQPDSDMVHRPVNENDILLVHRDSIFRSSCEVVSKANCAKLKQGIAVRFHGEEGMGQGVVREWFDILSNEIVNPDYALFTQSADGTTFQPNSNSYVNPDHLNYFRFAGQILGLALNHRQLVNIYFTRSFYKHILGIPVNYQDVASIDPEYAKNLQWILDNDISDLGLELTFSVETDVFGAMEEVPLKPGGGSILVTQNNKAEYVQLVTELRMTRAIQPQINAFLQGFHMFIPPSLIQLFDEYELELLLSGMPEIDVSDWIKNTEYTSGYEREDPVIQWFWEVVEDITQEERVLLLQFVTGSSRVPHGGFANIMGGSGLQNFTIAAVPYTPNLLPTSSTCINMLKLPEYPSKEILKDRLLVALHCGSYGYTMA
# chain 2: not shown
# Variants of: B1
# Experiment: co-immunoprecipitation (anti-myc IP), quantified; cells co-transfected with myc-Rac1 Q61L and HA-tagged HACE1 mutants; n ≥ 4 biological replicates; parent: 1; read off a plot
row,ratio to parent,Variant
1,~0.55,chain 1 V140L
2,~3.2,chain 1 V140A
3,~0.18,chain 1 G175S
4,~0.14,chain 1 G175C
5,~0.26,chain 1 N174A
6,~2.3,chain 1 M114V
7,~0.11,chain 1 A204T
8,~0.28,chain 1 Q173A
